This test concerns the target T1, DJ-1 protein with the 6X-His tag, Q99497.
T1 chain: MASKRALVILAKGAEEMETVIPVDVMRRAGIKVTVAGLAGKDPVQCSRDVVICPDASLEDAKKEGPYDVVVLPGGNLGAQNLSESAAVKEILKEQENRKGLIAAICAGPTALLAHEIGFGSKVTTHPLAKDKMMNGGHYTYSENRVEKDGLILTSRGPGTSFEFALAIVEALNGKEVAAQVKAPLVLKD
Kind of test: cross-linking; purified DJ-1 treated with 25 mM DSS at 25 °C for 30 min, with or without P1 or P2, then SDS-PAGE (12% gel). Conditions: remark: other sources report otherwise.

B1: DJ-1 protein with the 6X-His tag, Q99497 1-189 (enzyme)
chain: T1 chain
On to B1, for which the stoichiometry N was found to be 2.

As a reminder, the stoichiometry N is a count of units in the complex or per binding partner.
